Source: the supplement of paper PMC7877785
± gives the uncertainty stated by the source.

Assay: self-splicing fitness, log relative to wild type (ln ratio); higher = more splicing; Tetrahymena group I intron in knt gene, E. coli kanamycin selection, DiMSum; sequences stand for … in CUCUCU…GGAGGGAAAAGUUAUCAGGCAUGCACCUGGUAGCUAGUCUUUAAACCAAUAGAUUGCAUCGGUUUAAAAGGCAAGACCGUCAAAUUGCGGGAAAGGGGUCAACAGCCGUUCAGUACCAAGUCUCAGGGGAAACUUUGAGAUGGCCUUGCAAAGGGUAUGGUAAUAAGCUGACGGACAUGGUCCUAACCACGCAGCCAAGUCCUAAGUCAACAGAUCUUCUGUUGAUAUGGAUGCAGUUCACAGACUAAAUGUCGGUCGGGGAAGAUGUAUUCUUCUCAUAAGAUAUAGUCGGACCUCUCCUUAAUGGGAGCUAGCGGAUGAAGUGAUGCAACACUGGAGCCGCUGGGAACUAAUUUGUAUGCGAAAGUAUAUUGAUUAGUUUUGGAGUACUCGUGGUCG
Summary of the method: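 A randomised library covering all eight P1ex-region intron nucleotides was built with the intron in the knt kanamycin-resistance gene on pET-22b(+) and held in E. coli BL21(DE3). Cells were grown overnight at 37°C or 30°C on LB agar, with or without 25 μg/mL kanamycin, plus 100 μg/mL carbenicillin, 50 μM IPTG and 0.2% rhamnose, and pooled colonies were amplicon-sequenced on an Illumina HiSeq 2500. DiMSum fitness is the error-weighted combination of wild-type-normalised replicate fold changes, kanamycin versus none.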

Sequence	self-splicing fitness (ln) (30 °C)	self-splicing fitness (ln) (37 °C)
GGGAAGCAAUAUUACGGGUU	-3.15 ± 0.21	-1.36 ± 0.15
GGGAAGCAAUAUUACGGUCG	0.00025 ± 0.1	-0.403 ± 0.14
GGGAAGCAAUAUUACGGUGA	-1.76 ± 0.3	-0.447 ± 0.18
GGGAAGCAAUAUUACGGUUA	-1.27 ± 0.11	-0.726 ± 0.1
GGGAAGCAAUAUUACGUAAU	-1.88 ± 0.14	-0.632 ± 0.22
GGGAAGCAAUAUUACGUACA	-1.02 ± 0.14	-0.334 ± 0.24
GGGAAGCAAUAUUACGUAUA	-2.79 ± 0.15	-0.738 ± 0.094
GGGAAGCAAUAUUACGUCAC	-3.08 ± 0.2	-1.77 ± 0.19
GGGAAGCAAUAUUACGUGGA	-2 ± 0.17	-2.34 ± 0.29
GGGAAGCAAUAUUACGUGGU	-4.31 ± 0.27	-3.33 ± 0.47
GGGCAGCAAUAUUACGAAAC	-0.715 ± 0.3	-0.594 ± 0.28
GGGCAGCAAUAUUACGAACU	-0.431 ± 0.065	-0.278 ± 0.09
GGGCAGCAAUAUUACGACCA	-0.297 ± 0.28	0.951 ± 0.41
GGGCAGCAAUAUUACGAGAA	-3.05 ± 0.47	-1.87 ± 0.3
GGGCAGCAAUAUUACGAGCG	-0.755 ± 0.1	0.344 ± 0.12
GGGCAGCAAUAUUACGAGCU	-2.69 ± 0.22	0.481 ± 0.13
GGGCAGCAAUAUUACGAUGA	-1.36 ± 0.12	-0.649 ± 0.11
GGGCAGCAAUAUUACGCAUA	-1 ± 0.092	0.38 ± 0.13
GGGCAGCAAUAUUACGCCGC	-3.33 ± 0.22	-2.27 ± 0.31
GGGCAGCAAUAUUACGCUAG	-1.86 ± 0.078	-0.741 ± 0.11
GGGCAGCAAUAUUACGGAGA	-4.44 ± 0.46	-2.56 ± 0.22
GGGCAGCAAUAUUACGGAUU	-0.98 ± 0.12	-0.0797 ± 0.1
GGGCAGCAAUAUUACGGCGC	-0.77 ± 0.11	0.0143 ± 0.14
GGGCAGCAAUAUUACGGGGA	-2.97 ± 0.21	-1.56 ± 0.17
GGGCAGCAAUAUUACGGUAC	-1.73 ± 0.097	-0.144 ± 0.1
GGGCAGCAAUAUUACGGUGC	-2.21 ± 0.13	-1.8 ± 0.089

Sequence	self-splicing fitness (ln) (30 °C)	self-splicing fitness (ln) (37 °C)
GGGCAGCAAUAUUACGUAGU	-0.605 ± 0.086	-0.727 ± 0.11
GGGCAGCAAUAUUACGUAUG	-3.15 ± 0.23	-1.44 ± 0.22
GGGCAGCAAUAUUACGUAUU	-0.944 ± 0.061	0.0363 ± 0.074
GGGCAGCAAUAUUACGUUGU	-2.7 ± 0.16	-2.77 ± 0.19
GGGCAGCAAUAUUACGUUUC	-2.2 ± 0.094	-0.672 ± 0.098
GGGGAGCAAUAUUACGACAG	-3.9 ± 0.39	-2.33 ± 0.39
GGGGAGCAAUAUUACGACGC	-0.34 ± 0.15	0.117 ± 0.2
GGGGAGCAAUAUUACGAGGG	-2.13 ± 0.19	
GGGGAGCAAUAUUACGAUGC	-1.06 ± 0.42	
GGGGAGCAAUAUUACGCACA	-2.37 ± 0.43	-0.994 ± 0.34
GGGGAGCAAUAUUACGCUAG	-2.63 ± 0.27	
GGGGAGCAAUAUUACGCUCA	-1.05 ± 0.15	-0.61 ± 0.21
GGGGAGCAAUAUUACGCUUC	-3.28 ± 0.4	-2.12 ± 0.49
GGGGAGCAAUAUUACGGCUG	-2.72 ± 0.15	-1.09 ± 0.22
GGGGAGCAAUAUUACGUACU	-1.58 ± 0.17	-0.886 ± 0.16
GGGGAGCAAUAUUACGUCCG	-0.963 ± 0.13	-0.326 ± 0.2
GGGGAGCAAUAUUACGUCUG	-2.55 ± 0.37	-1.24 ± 0.24
GGGUAGCAAUAUUACGAAAC	-1.26 ± 0.32	-0.11 ± 0.4
GGGUAGCAAUAUUACGAAGU	-1.74 ± 0.23	-1.57 ± 0.24
GGGUAGCAAUAUUACGAUCA	-0.0146 ± 0.13	0.0752 ± 0.16
GGGUAGCAAUAUUACGCAGA	-2.97 ± 0.28	-1.93 ± 0.26
GGGUAGCAAUAUUACGCCUG	-1.42 ± 0.12	-0.219 ± 0.14
GGGUAGCAAUAUUACGCUAA	-1.32 ± 0.29	-0.0326 ± 0.25
GGGUAGCAAUAUUACGCUUU	-0.389 ± 0.11	-0.688 ± 0.12
GGGUAGCAAUAUUACGGAAC	-0.98 ± 0.11	-1.49 ± 0.19
GGGUAGCAAUAUUACGGAGA	-4.31 ± 0.3	-3.19 ± 0.23

Sequence	self-splicing fitness (ln) (30 °C)	self-splicing fitness (ln) (37 °C)
GGGUAGCAAUAUUACGGGAG	-2.54 ± 0.28	-1.44 ± 0.25
GGGUAGCAAUAUUACGGUCG	-0.207 ± 0.12	-0.642 ± 0.096
GGGUAGCAAUAUUACGUAUC	-1.3 ± 0.21	-0.963 ± 0.24
GGGUAGCAAUAUUACGUAUU	-0.286 ± 0.07	-1.06 ± 0.11
GGGUAGCAAUAUUACGUGAA	-1.36 ± 0.13	-0.147 ± 0.16
GGGUAGCAAUAUUACGUGUG	-1.65 ± 0.11	-1.24 ± 0.12
GGGUAGCAAUAUUACGUUAA	-1.72 ± 0.16	-0.668 ± 0.13
GGGUAGCAAUAUUACGUUAG		-1.78 ± 0.43
GGUAAGCAAUAUUACGACCC	-1.6 ± 0.26	-1.75 ± 0.43
GGUAAGCAAUAUUACGAGAU	-2.94 ± 0.25	-1.2 ± 0.16
GGUAAGCAAUAUUACGAGUG	-2 ± 0.16	-3.17 ± 0.13
GGUAAGCAAUAUUACGAUAA	-1.43 ± 0.092	-0.994 ± 0.13
GGUAAGCAAUAUUACGCAGC	-0.901 ± 0.24	-1.19 ± 0.23
GGUAAGCAAUAUUACGCCGG	-3.09 ± 0.47	-1.93 ± 0.47
GGUAAGCAAUAUUACGCGAU	-2.17 ± 0.3	
GGUAAGCAAUAUUACGCUUU	-1.88 ± 0.24	-2.02 ± 0.33
GGUAAGCAAUAUUACGGAUC	0.0183 ± 0.15	0.125 ± 0.21
GGUAAGCAAUAUUACGGCCA	-1.91 ± 0.39	
GGUAAGCAAUAUUACGGGCU	-1.76 ± 0.13	-0.874 ± 0.12
GGUAAGCAAUAUUACGGUAC	-1.32 ± 0.08	-0.815 ± 0.13
GGUAAGCAAUAUUACGGUGA	-1.45 ± 0.12	-0.756 ± 0.13
GGUAAGCAAUAUUACGGUGG	-2.82 ± 0.12	-3.18 ± 0.24
GGUAAGCAAUAUUACGUCAU	-0.725 ± 0.14	0.713 ± 0.2
GGUAAGCAAUAUUACGUCCA	-0.363 ± 0.14	-0.817 ± 0.16
GGUAAGCAAUAUUACGUCCG	-0.859 ± 0.11	-0.41 ± 0.15
